Assay results from PMC10397247.
Values belong to the binder of their own block, whether it stands above or below them.

Assays:
Assay in all cases: two-hybrid library CCNG1;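 further: natural log of median RNA to DNA barcode read ratio; higher means stronger binding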
P9mS = target: T1, P9mS
T1 chain: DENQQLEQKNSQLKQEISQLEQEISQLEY

P5mS = target: T2, P5mS
T2 chain: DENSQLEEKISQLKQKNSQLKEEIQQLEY

P3mS = target: T3, P3mS
T3 chain: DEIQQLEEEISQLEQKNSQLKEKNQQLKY

P11mS = target: T4, P11mS
T4 chain: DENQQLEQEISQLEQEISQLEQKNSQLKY

P8mS = target: T5, P8mS
T5 chain: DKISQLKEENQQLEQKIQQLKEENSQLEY

P6mS = target: T6, P6mS
T6 chain: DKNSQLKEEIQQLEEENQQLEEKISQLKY

P4mS = target: T7, P4mS
T7 chain: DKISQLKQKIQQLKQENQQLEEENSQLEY

P12mS = target: T8, P12mS
T8 chain: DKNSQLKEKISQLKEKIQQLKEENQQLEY

P7mS = target: T9, P7mS
T9 chain: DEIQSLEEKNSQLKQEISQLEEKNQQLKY

4H3907-bH = target: T10, 4H3907-bH
T10 chain: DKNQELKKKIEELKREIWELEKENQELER

4H4038-bH = target: T11, 4H4038-bH
T11 chain: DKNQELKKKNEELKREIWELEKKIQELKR

4H850-bN = target: T12, 4H850-bN
T12 chain: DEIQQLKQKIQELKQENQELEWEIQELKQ

4H1387-bH = target: T13, 4H1387-bH
T13 chain: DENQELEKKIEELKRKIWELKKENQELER

4H3592-bH = target: T14, 4H3592-bH
T14 chain: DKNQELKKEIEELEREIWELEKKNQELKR

4H4001-bH = target: T15, 4H4001-bH
T15 chain: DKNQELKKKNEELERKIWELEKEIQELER

4H1406-bH = target: T16, 4H1406-bH
T16 chain: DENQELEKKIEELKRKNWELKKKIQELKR

4H3601-bH = target: T17, 4H3601-bH
T17 chain: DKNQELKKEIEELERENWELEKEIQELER

4H918-bN = target: T18, 4H918-bN
T18 chain: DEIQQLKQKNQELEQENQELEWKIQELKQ

4H346-bN = target: T19, 4H346-bN
T19 chain: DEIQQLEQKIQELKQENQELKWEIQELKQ

4H968-bN = target: T20, 4H968-bN
T20 chain: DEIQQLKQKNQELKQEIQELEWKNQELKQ

4H754-bN = target: T21, 4H754-bN
T21 chain: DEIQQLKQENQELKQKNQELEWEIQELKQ

4H170-bN = target: T22, 4H170-bN
T22 chain: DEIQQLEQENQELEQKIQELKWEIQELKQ

4H797-bN = target: T23, 4H797-bN
T23 chain: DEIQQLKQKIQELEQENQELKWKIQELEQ

4H118-bN = target: T24, 4H118-bN
T24 chain: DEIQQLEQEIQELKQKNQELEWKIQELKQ

4H575-bN = target: T25, 4H575-bN
T25 chain: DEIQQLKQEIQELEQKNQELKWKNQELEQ

4H4073-bN = target: T26, 4H4073-bN
T26 chain: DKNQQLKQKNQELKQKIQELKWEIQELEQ

4H855-bN = target: T27, 4H855-bN
T27 chain: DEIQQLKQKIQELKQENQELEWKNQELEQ

4H1831-bN = target: T28, 4H1831-bN
T28 chain: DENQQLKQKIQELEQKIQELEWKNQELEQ

4H780-bN = target: T29, 4H780-bN
T29 chain: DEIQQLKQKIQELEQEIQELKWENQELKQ

4H3427-bN = target: T30, 4H3427-bN
T30 chain: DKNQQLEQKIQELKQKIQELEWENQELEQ

4H3112-bN = target: T31, 4H3112-bN
T31 chain: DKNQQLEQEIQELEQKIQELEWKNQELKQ

4H2627-bN = target: T32, 4H2627-bN
T32 chain: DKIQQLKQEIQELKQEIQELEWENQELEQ

4H2586-bN = target: T33, 4H2586-bN
T33 chain: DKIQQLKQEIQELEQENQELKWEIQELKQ

4H2702-bN = target: T34, 4H2702-bN
T34 chain: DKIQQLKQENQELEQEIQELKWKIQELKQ

4H1158-bN = target: T35, 4H1158-bN
T35 chain: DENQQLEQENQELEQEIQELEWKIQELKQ

4H457-bN = target: T36, 4H457-bN
T36 chain: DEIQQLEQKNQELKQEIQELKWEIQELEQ

4H953-bN = target: T37, 4H953-bN
T37 chain: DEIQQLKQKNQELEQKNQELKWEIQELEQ

4H2673-bN = target: T38, 4H2673-bN
T38 chain: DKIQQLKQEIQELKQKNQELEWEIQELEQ

4H683-bN = target: T39, 4H683-bN
T39 chain: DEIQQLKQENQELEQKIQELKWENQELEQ

4H3010-bN = target: T40, 4H3010-bN
T40 chain: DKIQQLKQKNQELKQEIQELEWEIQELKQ

4H3926-bN = target: T41, 4H3926-bN
T41 chain: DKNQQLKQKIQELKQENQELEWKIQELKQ

- interaction score (P9mS): -0.542
- interaction score (P5mS): 0.261
- interaction score (P3mS): -0.646
- interaction score (P11mS): -0.707
- interaction score (P8mS): -0.0076
- interaction score (P6mS): -0.739
- interaction score (P4mS): 0.774
- interaction score (P12mS): 1.52
- interaction score (P7mS): -0.84
B1: P11mS (peptide)
chain: DENQQLEQEISQLEQEISQLEQKNSQLKY

- interaction score (4H3907-bH): 1.59
- interaction score (4H4038-bH): 1.09
- interaction score (4H850-bN): 0.44
- interaction score (4H1387-bH): 0.423
- interaction score (4H3592-bH): 1.37
- interaction score (4H4001-bH): 0.333
- interaction score (4H1406-bH): -0.693
- interaction score (4H3601-bH): -0.847
B2: 4H1387-bH (peptide)
chain: DENQELEKKIEELKRKIWELKKENQELER

- interaction score (4H918-bN): -1.72
- interaction score (4H346-bN): -0.45
- interaction score (4H968-bN): -1.23
- interaction score (4H754-bN): 0.195
- interaction score (4H170-bN): -0.262
- interaction score (4H797-bN): -0.804
- interaction score (4H118-bN): 0.579
- interaction score (4H575-bN): -0.306
- interaction score (4H4073-bN): 2.1
- interaction score (4H855-bN): 0.326
- interaction score (4H1831-bN): -0.553
- interaction score (4H780-bN): -0.000435
- interaction score (4H3427-bN): -0.273
- interaction score (4H3112-bN): 0.501
- interaction score (4H2627-bN): -1.89
- interaction score (4H2586-bN): 0.693
- interaction score (4H2702-bN): -0.191
- interaction score (4H1158-bN): 0.0264
- interaction score (4H457-bN): 0.107
- interaction score (4H953-bN): 0.0849
- interaction score (4H2673-bN): -1.07
- interaction score (4H683-bN): 0.827
- interaction score (4H3010-bN): 1.32
- interaction score (4H3926-bN): -1.19
B3: 4H1158-bN (peptide)
chain: DENQQLEQENQELEQEIQELEWKIQELKQ
